Measured values from paper PMC6856128 (Scientific Reports, 2019).

Target: the molecule itself
Experiment: SEC

B1: Mycobacterium tuberculosis CysA2 (enzyme)
chain: MARCDVLVSADWAESNLHAPKVVFVEVDEDTSAYDRDHIAGAIKLDWRTDLQDPVKRDFVDAQQFSKLLSERGIANEDTVILYGGNNNWFAAYAYWYFKLYGHEKVKLLDGGRKKWELDGRPLSSDPVSRPVTSYTASPPDNTIRAFRDEVLAAINVKNLIDVRSPDEFSGKILAPAHLPQEQSQRPGHIPGAINVPWSRAANEDGTFKSDEELAKLYADAGLDNSKETIAYCRIGERSSHTWFVLRELLGHQNVKNYDGSWTEYGSLVGAPIELGS
stoichiometry N: 2
